Assay results reported in paper PMC6862323, “Substitution of Arginine 120 in Human D-Amino Acid Oxidase Favors FAD-Binding and Nuclear Mistargeting” (Frontiers in Molecular Biosciences, 2019).

System: C[C@@H](N)C(=O)O
Test: purified protein, by the assay type
Conditions: other: air saturation, 25°C, pH 8.5, 0.2 mM FAD

Chain of R120E hDAAO variant (Homo sapiens; R120E) (chain, as listed by the source R120E R120E): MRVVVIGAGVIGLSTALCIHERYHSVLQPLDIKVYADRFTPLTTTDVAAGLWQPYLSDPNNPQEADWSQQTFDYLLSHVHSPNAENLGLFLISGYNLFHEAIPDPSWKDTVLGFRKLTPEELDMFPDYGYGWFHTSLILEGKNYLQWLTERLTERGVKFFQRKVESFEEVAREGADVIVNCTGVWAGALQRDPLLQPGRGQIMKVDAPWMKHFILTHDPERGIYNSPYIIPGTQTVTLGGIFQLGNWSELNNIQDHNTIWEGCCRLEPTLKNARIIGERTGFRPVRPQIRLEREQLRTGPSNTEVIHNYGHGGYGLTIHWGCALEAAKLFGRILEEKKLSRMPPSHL
Chain of R120L hDAAO variant (Homo sapiens; R120L) (chain, as listed by the source R120L R120L): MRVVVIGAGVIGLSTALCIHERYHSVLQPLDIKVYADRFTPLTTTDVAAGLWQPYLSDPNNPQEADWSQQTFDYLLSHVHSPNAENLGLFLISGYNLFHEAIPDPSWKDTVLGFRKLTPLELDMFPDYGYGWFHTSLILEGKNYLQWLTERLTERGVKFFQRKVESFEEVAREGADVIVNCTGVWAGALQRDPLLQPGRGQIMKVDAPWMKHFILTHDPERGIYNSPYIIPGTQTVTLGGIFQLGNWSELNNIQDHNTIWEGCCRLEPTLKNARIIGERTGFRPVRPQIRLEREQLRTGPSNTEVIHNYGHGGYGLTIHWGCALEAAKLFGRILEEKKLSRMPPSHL

## R120L hDAAO variant (Homo sapiens; R120L)
  Km: 2.0 ± 0.3 mM
  kcat: 17.3 s⁻¹
  kcat/Km: 8500 M⁻¹ s⁻¹

## R120E hDAAO variant (Homo sapiens; R120E)
  Km: 1.4 ± 0.1 mM
  kcat: 12.6 s⁻¹
  kcat/Km: 8900 M⁻¹ s⁻¹
